Results published in publication PMC10404625 (The Journal of Biological Chemistry, 2023).
Ends that are not written are not given here.

Tests used:
Assay in all cases: MST
Tfc4 N-ter (1–580) = biological target: T1, Tfc4 N-ter (1–580) (S. cerevisiae, UniProt P33339 1-580)
T1 sequence (looked up): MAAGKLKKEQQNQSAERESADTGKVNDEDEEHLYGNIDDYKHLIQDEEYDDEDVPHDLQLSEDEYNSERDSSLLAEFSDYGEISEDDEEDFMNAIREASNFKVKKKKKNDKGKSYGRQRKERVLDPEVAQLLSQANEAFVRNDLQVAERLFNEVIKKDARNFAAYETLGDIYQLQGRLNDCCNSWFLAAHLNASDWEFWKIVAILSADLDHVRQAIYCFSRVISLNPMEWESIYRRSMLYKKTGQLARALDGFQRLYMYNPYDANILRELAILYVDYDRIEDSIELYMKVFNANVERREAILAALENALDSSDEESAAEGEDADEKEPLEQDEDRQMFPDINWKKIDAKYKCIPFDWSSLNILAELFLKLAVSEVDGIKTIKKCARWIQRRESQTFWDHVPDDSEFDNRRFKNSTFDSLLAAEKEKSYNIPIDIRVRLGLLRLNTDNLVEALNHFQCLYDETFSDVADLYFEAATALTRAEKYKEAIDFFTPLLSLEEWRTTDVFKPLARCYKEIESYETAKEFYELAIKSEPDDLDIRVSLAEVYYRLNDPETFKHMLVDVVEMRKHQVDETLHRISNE

Rpc25/17 heterodimer = biological target: T2, Rpc25/17 heterodimer (S. cerevisiae, UniProt P35718 1-212; P47076 1-161)
T2 sequence (looked up) 1: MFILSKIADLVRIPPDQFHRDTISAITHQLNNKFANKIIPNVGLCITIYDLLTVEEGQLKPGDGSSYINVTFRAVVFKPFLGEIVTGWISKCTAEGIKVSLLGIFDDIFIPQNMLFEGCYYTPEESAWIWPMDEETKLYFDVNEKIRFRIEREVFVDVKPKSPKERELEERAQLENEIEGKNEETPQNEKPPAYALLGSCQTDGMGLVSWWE
T2 sequence (looked up) 2: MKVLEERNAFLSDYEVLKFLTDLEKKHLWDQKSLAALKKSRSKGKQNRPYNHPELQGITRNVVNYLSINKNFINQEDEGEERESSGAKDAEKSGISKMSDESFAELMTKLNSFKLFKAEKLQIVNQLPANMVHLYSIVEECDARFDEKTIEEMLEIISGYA

full-length Rpc37 = biological target: T3, full-length Rpc37 (S. cerevisiae, UniProt P36121 1-282)
T3 sequence (looked up): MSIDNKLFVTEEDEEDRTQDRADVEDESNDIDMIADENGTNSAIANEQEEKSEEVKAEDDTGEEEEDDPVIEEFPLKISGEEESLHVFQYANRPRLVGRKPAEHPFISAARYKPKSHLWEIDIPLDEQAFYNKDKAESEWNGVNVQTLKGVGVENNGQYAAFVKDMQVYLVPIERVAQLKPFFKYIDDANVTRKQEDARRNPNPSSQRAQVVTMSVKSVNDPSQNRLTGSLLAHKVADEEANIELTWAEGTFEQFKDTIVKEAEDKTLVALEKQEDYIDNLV

[1] = biological target: T4, Rpc53/37 dimerization module (Rpc53 (274–422)/Rpc37 (71–181)) (S. cerevisiae, UniProt P25441 274-422; P36121 71-181)
T4 sequence (looked up) 1: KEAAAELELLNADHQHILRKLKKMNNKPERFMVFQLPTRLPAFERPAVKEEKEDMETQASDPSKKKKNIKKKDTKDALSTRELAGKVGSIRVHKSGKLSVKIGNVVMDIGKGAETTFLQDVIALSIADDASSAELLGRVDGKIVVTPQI
T4 sequence (looked up) 2: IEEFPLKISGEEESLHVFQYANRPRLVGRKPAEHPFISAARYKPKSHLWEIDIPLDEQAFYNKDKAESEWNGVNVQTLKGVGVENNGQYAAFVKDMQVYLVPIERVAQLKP

[2] = biological target: three Rpc53 N-ter mutant peptides

Binder | Kd (Tfc4 N-ter (1–580)) | Kd (Rpc25/17 heterodimer) | Kd (full-length Rpc37) | Kd [1] | Kd [2]
Rpc53 N-ter (1–57) fragment (domain or fragment, S. cerevisiae, UniProt P25441 1-57, looked up, also: Alexa Fluor 647 via NHS ester, position not given here) MSSNKGNGRLPSLKDSSSNGGGSAKPSLKFKPKAVARKSKEEREAAASKVKLEEESK | 5.6 ± 1.7 nM | 230 ± 170 nM | 8.2 ± 1.7 nM | 1620 ± 650 nM | –
Tfc4 N-ter (1–580) (domain or fragment) MAAGKLKKEQQNQSAERESADTGKVNDEDEEHLYGNIDDYKHLIQDEEYDDEDVPHDLQLSEDEYNSERDSSLLAEFSDYGEISEDDEEDFMNAIREASNFKVKKKKKNDKGKSYGRQRKERVLDPEVAQLLSQANEAFVRNDLQVAERLFNEVIKKDARNFAAYETLGDIYQLQGRLNDCCNSWFLAAHLNASDWEFWKIVAILSADLDHVRQAIYCFSRVISLNPMEWESIYRRSMLYKKTGQLARALDGFQRLYMYNPYDANILRELAILYVDYDRIEDSIELYMKVFNANVERREAILAALENALDSSDEESAAEGEDADEKEPLEQDEDRQMFPDINWKKIDAKYKCIPFDWSSLNILAELFLKLAVSEVDGIKTIKKCARWIQRRESQTFWDHVPDDSEFDNRRFKNSTFDSLLAAEKEKSYNIPIDIRVRLGLLRLNTDNLVEALNHFQCLYDETFSDVADLYFEAATALTRAEKYKEAIDFFTPLLSLEEWRTTDVFKPLARCYKEIESYETAKEFYELAIKSEPDDLDIRVSLAEVYYRLNDPETFKHMLVDVVEMRKHQVDETLHRISNE | – | – | – | – | 40 to 100 nM
